Values of other authors, collected in US20150177237.

Molecular target: thrombin (UniProt P00734+P00734)
Settings: n positions 6-20 are abasic (x); CITED known Kd of thrombin for its aptamer; nanopore event ratios at 10-1000 nM thrombin closely match theory from this Kd; 1 M KCl, 10 mM Tris pH 7.5

AAAAANNNNNNNNNNNNNNNAAAAAAAAAAGGTTGGTGTGGTTGG [5A15x10A_TBA]
Kd: 50 nM
